Measured values as given in patent US20250304677A1 (VIB VZW, published 2025).
Positions count from the first letter of the chain named. Numbers in names are those of the source.

B1: VHH 2MFR7 (family 1) (VHH)
VHH: QVQLQESGGGLVQPGGSLRLSCAASGFPFSTYYMSWVRQAPGKGLEWVSGINSNGGVIDYADSVKGRFTISRDNAKNTLYLQLNSLKPEDTALYFCARGRAFVATMPSSLRGQGTQVTVSS
notes: also called 2MFRO7
B2: VHH 2MFR32 (VHH)
VHH: B1 VHH with P14A, L20V, Y32V, K76N, R98K
notes: also called 2MF832
B3: VHH 3HFO26 (family 1) (VHH)
VHH: B1 VHH with L20I, S21T, A23V
B4: P01500008: 2MFR67(Q1E, Q5V, Q108L)-FLAG3-HIS6 (VHH)
VHH: EVQLVESGGGLVQAGGSLRLSCAASGSGFSGMIMGWYRQAPGKQRELVATVTSHGTTNYADSVKGRFTISREDSKNTVLLQMNSLKPEDTAVYYCNAHFPGIYWGKGTLVTVSS
notes: Entry includes the tags; also called 2MFR67-Flag3-His6

Columns and labels:
[1] = biological target: T1, mouse folate receptor alpha (mFRα), recombinant protein (mouse, UniProt P35846 25-232); experiment: ELISA, periplasmic extract
T1 construct: Bought recombinant proteins (e.g. biotinylated, Acro Biosystems FO1-M82E9); also called mFOLR1; Ms FOLR1
T1 sequence (P35846 25-232 limits assumed): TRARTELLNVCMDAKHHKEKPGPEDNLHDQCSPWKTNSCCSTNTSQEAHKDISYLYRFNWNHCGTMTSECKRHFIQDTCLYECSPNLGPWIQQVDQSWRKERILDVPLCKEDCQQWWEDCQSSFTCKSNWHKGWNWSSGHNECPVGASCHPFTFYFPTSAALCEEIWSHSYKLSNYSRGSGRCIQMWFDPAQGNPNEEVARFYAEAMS
Description: (§1) From the lymphocytes of each llama a separate VHH library was constructed to select and screen for the presence of antigen-specific VHHs. To this end, total RNA from peripheral blood lymphocytes was used as template for first strand cDNA synthesis with an oligo ^{∘}dT) primer. Using this cDNA, the VHH encoding sequences were amplified by PCR, digested with PstI and NotI, cloned into the PstI and NotI sites of the phagemid vector pMECS and transformed into E. coli to generate VHH libraries. To enrich these libraries for FRα ^{∘}or FOLR1, as used interchangeably herein)-specific VHHs, a combinatorial panning approach on recombinant human and mouse FOLR1 was used followed by random selection and screening of clones by ELISA for the presence of antigen-specific VHHs in their periplasmic extracts ^{∘}PEs). In order to gauge the cross-reactivity for human and mouse FOLR1, each clone was tested on both antigens.
(§2) After panning of core76/77 on human and mouse folate receptor alpha ^{∘}FRα), […] were randomly selected from the second and third rounds and analyzed by ELISA on both human and mouse FRα for the presence of FRα-specific VHHs in their periplasmic extracts ^{∘}PE). This led to the identification of 98 hits. For these 98 hits, the off-rate ^{∘}koff) in the PE was determined by biolayer interferometry ^{∘}BLI) on both mouse and human FRα that was directly immobilized onto AR2G biosensors. The off-rates were calculated using a 1:1 binding model. […] Abbreviations: SE: standard error.

[2] = biological target: T2, human folate receptor alpha (hFRα), recombinant protein (human, UniProt P15328 25-233); experiment: ELISA, periplasmic extract
T2 construct: Bought recombinant proteins (His-tagged, or biotinylated via Avi-tag, e.g. AcroBiosystems FO1-H82E2, F01-H52H1); also called hFOLR1; huFOLR1
T2 sequence (P15328 25-233 limits assumed): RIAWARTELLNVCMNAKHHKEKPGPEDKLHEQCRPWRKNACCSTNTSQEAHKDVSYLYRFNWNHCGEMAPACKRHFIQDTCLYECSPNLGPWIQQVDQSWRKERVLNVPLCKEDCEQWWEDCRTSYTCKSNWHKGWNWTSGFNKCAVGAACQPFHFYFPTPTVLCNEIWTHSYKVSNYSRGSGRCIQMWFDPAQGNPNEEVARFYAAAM
Description: as §1, §2

[3] = biological target: T1, mouse folate receptor alpha (mFRα), …; experiment: BLI, FRα on AR2G biosensors, 1:1 model
Description: (§3) As a next step, the kinetic binding constants were determined using BLI ^{∘}Table 3). […] Similar to the ELISA results ^{∘}FIG. 1A-B), higher binding affinities were measured for mouse FRα than human FRα, with KD values […] one order of magnitude in most cases. […] For 3HFO28, binding to human FRα could not be confirmed by BLI, and this VHH was excluded from further characterization.
(§4) The kinetic parameters were calculated using a 1:1 binding model.

[4] = biological target: T2, human folate receptor alpha (hFRα), …; experiment: BLI, FRα on AR2G biosensors, 1:1 model
Description: as §3, §4

[5] = biological target: T3, mouse folate receptor alpha expressed on transfected HEK293T cells (mouse, UniProt P35846 25-232); experiment: flow cytometry on HEK293T cells overexpressing mouse FOLR1, His tag detection, PE MFI, non-linear fit
T3 construct: also called cell-expressed mouse FRα
T3 sequence (P35846 25-232 limits assumed): as the sequence (P35846 25-232 limits assumed) above
Description: (§5) Data were normalized and technical replicates were plotted as mean±SD. Data were fitted by non-linear regression and the half-maximal effective concentration ^{∘}EC50) was calculated using GraphPad Prism 9 software. ^{∘}FIG. 1C and FIG. 1D) Binding affinity determination of anti-FOLR1 VHHs for native FOLR1. Mouse ^{∘}FIG. 1C) or human FOLR1 FIG. 1D) was overexpressed on HEK293T cells and binding of the anti-FOLR1 VHHs was assessed using flow cytometry. The mean fluorescence intensity ^{∘}MFI) of the phycoerythrin signal was plotted for each VHH concentration. Data were fitted by non-linear regression using GraphPad Prism 9 software. ^{∘}FIG. 1E) Determination of the competition of representative family members with folic acid ^{∘}FA) using ELISA. Mouse FOLR1 was coated on the plate and was pre-incubated with or without 100 μM FA before adding the VHHs. Data were fitted by non-linear regression using GraphPad Prism 9 software.

[6] = biological target: T1, mouse folate receptor alpha (mFRα), …; experiment: ELISA on recombinant mouse FOLR1, cMyc tag detection, normalised binding, non-linear fit
Description: as §5
(§6) In a first step, binding affinity and cross-reactivity of the purified VHHs to human and mouse FRα was assessed by ELISA, using detection of the cMyc tag ^{∘}FIG. 1A-B). […] 2HFO19 ^{∘}family 1) was the best binder of all tested VHHs to both mouse and human FRα with an EC₅₀ of 0.1 nM and 0.4 nM respectively ^{∘}FIG. 1A-B).

[7] = biological target: T4, human folate receptor alpha expressed on cells (transfected HEK293T, HeLa, MCF7, MDA-MB-231) (human, UniProt P15328 25-234); experiment: flow cytometry on HEK293T cells overexpressing human FOLR1, His tag detection, PE MFI, non-linear fit
T4 construct: HEK293T transiently transfected with human FOLR1; also called native human FRα; cell-expressed human FOLR1
T4 sequence (P15328 25-234 limits assumed): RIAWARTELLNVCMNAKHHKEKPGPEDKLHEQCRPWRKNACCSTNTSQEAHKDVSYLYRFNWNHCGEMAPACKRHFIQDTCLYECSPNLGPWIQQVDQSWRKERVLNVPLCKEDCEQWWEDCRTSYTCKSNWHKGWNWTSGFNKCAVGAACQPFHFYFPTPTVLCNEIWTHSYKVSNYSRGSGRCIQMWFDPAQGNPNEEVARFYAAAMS
Description: as §5

[8] = biological target: T2, human folate receptor alpha (hFRα), …; experiment: ELISA on recombinant human FOLR1, cMyc tag detection, normalised binding, non-linear fit
Description: as §5, §6

[9] = biological target: T5, human folate receptor beta (FRβ) (human, UniProt P14207 17-230, limits assumed); experiment: method not named (follows the ELISA of Example 3)
T5 construct: also called hFOLR2; human FOLR2
T5 sequence (P14207 17-230 limits assumed): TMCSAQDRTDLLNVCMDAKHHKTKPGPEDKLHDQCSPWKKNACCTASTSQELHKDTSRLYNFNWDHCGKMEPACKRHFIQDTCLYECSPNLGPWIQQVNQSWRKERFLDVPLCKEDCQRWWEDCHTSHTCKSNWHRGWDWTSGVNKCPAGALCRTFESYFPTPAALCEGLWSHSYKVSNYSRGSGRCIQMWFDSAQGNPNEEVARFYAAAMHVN

[10] = biological target: T1, mouse folate receptor alpha (mFRα), …; experiment: BLI, periplasmic extract, FRα on AR2G biosensors
Description: as §2

[11] = biological target: T2, human folate receptor alpha (hFRα), …; experiment: BLI, periplasmic extract, FRα on AR2G biosensors
Description: as §2

[12] = biological target: T1, mouse folate receptor alpha (mFRα), …; experiment: BLI tandem binning on mouse FRα; competitor (1st association) 3MFR60
Description: (§7) VHHs that share high sequence identity in the CDR3 region, a VHH family, are derived from the same B-cell lineage and diverged from each other due to somatic hypermutation or affinity maturation. Typically, VHHs from the same family recognize the same epitope on the target, but may differ in other characteristics ^{∘}De Genst et al 2006 PNAS 103:4586-4591; De Gents et al 2005 J Biol Chem 280:14114-14121). To study whether the VHHs from the different families bound different epitopes, epitope binning was performed using a tandem binding approach in BLI. One VHH from each family was allowed to bind to mouse FRα on the biosensor, followed by binding of the second VHH ^{∘}Table 4).
(§8) Competition between VHHs from different complementarity determining region ^{∘}CDR) 3 families was assessed in a tandem binding assay using biolayer interferometry ^{∘}BLI). Streptavidin biosensors were loaded with biotinylated mouse FRα ^{∘}Acro Biosystems, Cat.nr. FO1-M82E9), followed by binding of anti-FRα VHHs ^{∘}VHH in first association). The biosensors were then transferred to a solution containing a second VHH mixed 1:1 with the first VHH ^{∘}VHH in second association). Using the FortéBio Data Analysis Software the absolute additional binding signal for the second association on top of the first association was calculated. The data were normalized per VHH in first association using the following formula: ^{∘}signal-self)/^{∘}maximum-self) with self being the value of the VHH in first association in combination with the same VHH in second association.

[13] = biological target: T1, mouse folate receptor alpha (mFRα), …; experiment: BLI tandem binning on mouse FRα; competitor (1st association) 2MFR32
Description: as §7, §8

[14] = biological target: T1, mouse folate receptor alpha (mFRα), …; experiment: BLI tandem binning on mouse FRα; competitor (1st association) 2HFO42
Description: as §7, §8

[15] = biological target: T1, mouse folate receptor alpha (mFRα), …; experiment: BLI tandem binning on mouse FRα; competitor (1st association) 2HFO19
Description: as §7, §8

[16] = biological target: T4, human folate receptor alpha expressed …; experiment: flow cytometry on HeLa cells, anti-Flag detection
Description: EC₅₀ values are found in Table 9. Detection of VHH cell binding was done through anti-Flag M2 mIgG1 followed by anti-mFc-PE in flow cytometry. Results are depicted as mean fluorescence intensity ^{∘}MFI).
Off-rates of purified variants were determined to human, mouse, and cynomolgus FRα in BLI. In addition, binding of the affinity optimised variants to cell-expressed human FRα on HeLa cells was determined by flow cytometry ^{∘}FIG. 10 B).

[17] = biological target: T1, mouse folate receptor alpha (mFRα), …; experiment: BLI, Avi-biotinylated FRα on streptavidin biosensors, VHH 100 nM
Description: (§9) The binding of humanized variants of 2HFO42 was assessed by kinetic binding analysis to mouse and human FRα protein, biotinylated via an Avi-tag, captured on streptavidin biosensors by biolayer interferometry ^{∘}BLI), essentially as described earlier. VHHs were analysed at 100 nM concentration, and off-rates were determined using fitting of 1:1 langmurian interaction. Dissociation constants were compared to 2HFO42^{∘}Q1E, Q5V, Q108L) ^{∘}P101500004) and 2MFR67 ^{∘}Q1E, Q5V, Q108L) ^{∘}P0150000), respectively.

[18] = biological target: T2, human folate receptor alpha (hFRα), …; experiment: as above
Description: as §9

[19] = biological target: T1, mouse folate receptor alpha (mFRα), …; experiment: BLI, VHH captured by anti-FLAG antibody on mouse Fc biosensors
Outline: (§10)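 Biolayer interferometry was used to measure binding of VHHs to human, mouse and rhesus monkey folate receptor alpha. Each VHH was first captured on mouse Fc biosensors with an anti-FLAG tag antibody. A 1:1 binding model was applied to derive kon, koff and the equilibrium dissociation constant (KD).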

[20] = biological target: T6, rhesus monkey folate receptor alpha, recombinant (rhesus monkey, UniProt F7BP60 25-233); experiment: as above
T6 construct: also called rhFolR1; rhesus macaque FRα
T6 sequence (F7BP60 entry or part of it): as the sequence (P15328 25-233 limits assumed) above, with I2T, W4R, R37K, A146P, H171Y counted along it
Outline: as §10

[21] = biological target: T2, human folate receptor alpha (hFRα), …; experiment: as above
Outline: as §10

[22] = biological target: T1, mouse folate receptor alpha (mFRα), …; experiment: BLI, purified VHH
Outline: (§11)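 VHH proteins carrying a flag3-His6 tag were expressed in TG-1 E. coli at 0.5 L scale. Each was purified from the periplasmic fraction on Ni Sepharose FastFlow columns, then desalted, and its purity was checked by SDS-PAGE. Biolayer interferometry was used to measure off-rates to human, mouse and cynomolgus folate receptor alpha.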

[23] = biological target: T7, cynomolgus folate receptor alpha, recombinant (cynomolgus, UniProt A0A2K5U044 25-233); experiment: BLI, purified VHH
T7 construct: also called cyFOLR1; cynomolgus FRα
T7 sequence (A0A2K5U044 entry or part of it): as the sequence (P15328 25-233 limits assumed) above, with I2T, W4R, R37K, A146P, H171Y counted along it
Outline: as §11

[24] = biological target: T2, human folate receptor alpha (hFRα), …; experiment: BLI, purified VHH
Outline: as §11

Binder | PE-ELISA (ratio to uncoated well) [1] | PE-ELISA (ratio to uncoated well) [2] | Kd [3] [nM] | koff [3] [s⁻¹] | kon [3] [M⁻¹ s⁻¹] | Kd [4] [nM] | koff [4] [s⁻¹] | kon [4] [M⁻¹ s⁻¹] | EC50 [5] [nM] | EC50 [6] [nM] | EC50 [7] [nM] | EC50 [8] [nM] | binding result [9] | koff [10] [s⁻¹] | koff [11] [s⁻¹] | other results
B1 | 14.1 | 12.4 | 16.7 | 0.0527 | 3.15e+06 | 70.9 | 0.0849 | 1.2e+06 | 1.5 | 0.6 | 20.2 | 11.6 | no binding | 0.0542 | 0.108 | 
B2 |  |  |  |  |  |  |  |  |  |  |  |  |  |  |  | normalized additional binding in 2nd association [12]: 100%; normalized additional binding in 2nd association [13]: 0%; normalized additional binding in 2nd association [14]: 100%; normalized additional binding in 2nd association [15]: 100%
B3 | 4.9 | 4.8 | 7.86 | 0.0197 | 2.5e+06 | 662 | 0.182 | 275000 | 1.4 | 0.3 | 7 | 20.3 | no binding | 0.0135 | 0.0582 | 
B4 |  |  |  |  |  |  |  |  |  |  |  |  |  |  |  | EC50 [16]: 5.6 nM; MFI top [16]: 54900 MFI; koff [17]: 0.00042 s⁻¹; koff [18]: 0.00304 s⁻¹; Kd [19]: 2.52 nM; koff [19]: 0.000571 s⁻¹; kon [19]: 227000 M⁻¹ s⁻¹; Kd [20]: 13.8 nM; koff [20]: 0.00434 s⁻¹; kon [20]: 315000 M⁻¹ s⁻¹; Kd [21]: 8.78 nM; koff [21]: 0.0031 s⁻¹; kon [21]: 353000 M⁻¹ s⁻¹; koff [22]: 0.000447 s⁻¹; koff [23]: 0.000454 s⁻¹; koff [24]: 0.00282 s⁻¹
